Laboratory results from PMC3285515.

Biological target: HSV-1 glycoprotein D (gD), wild type, on KOS/tk12 virions (HSV-1 (strain KOS)) (UniProt A1Z0Q5)
UniProt A1Z0Q5, sequence (A1Z0Q5 26-394): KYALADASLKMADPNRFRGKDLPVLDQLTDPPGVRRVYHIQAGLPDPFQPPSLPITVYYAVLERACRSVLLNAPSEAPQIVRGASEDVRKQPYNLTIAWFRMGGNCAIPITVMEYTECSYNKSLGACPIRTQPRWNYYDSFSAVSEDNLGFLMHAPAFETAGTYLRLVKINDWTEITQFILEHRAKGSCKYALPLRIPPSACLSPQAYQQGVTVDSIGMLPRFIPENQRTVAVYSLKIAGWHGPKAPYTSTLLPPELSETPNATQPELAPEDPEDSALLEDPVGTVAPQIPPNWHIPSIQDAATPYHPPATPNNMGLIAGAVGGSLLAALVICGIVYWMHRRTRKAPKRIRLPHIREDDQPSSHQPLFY

In the case of “sHA102, soluble HVEM (HveA) protein containing the first two cysteine-rich pseudorepeats (N-terminal 102 amino acids of HVEM) (domain or fragment)”, the sHA102-mediated KOS/tk12 infection of receptor-deficient CHO-K1 cells; sHA102 0-1,000 nM, MOI 3 and 9; ONPG assay and X-gal staining (percent of cells infected) (% of the cells infected) is reported as 90 to 100.
